From PMC4177747, “Derlin-1 Regulates Mutant VCP-Linked Pathogenesis and Endoplasmic Reticulum Stress-Induced Apoptosis” (PLoS Genetics, 2014)

Target: T1, TER94 (endogenous, the fly VCP homolog) (Drosophila (endogenous in flies), UniProt Q7KN62 1-801)
T1 construct: TER94, the Drosophila homolog of VCP, endogenous, detected with anti-VCP; also called TER94^WT; source: endogenous, whole fly lysate
Experiment: co-IP; anti-VCP on protein A-agarose; lysates of wild-type flies untreated or kept at 0°C for two hours and recovered for four hours at 25°C; blot with anti-VCP and anti-Derlin-1
Conditions: partners not purified

T1 sequence (Q7KN62 whole entry): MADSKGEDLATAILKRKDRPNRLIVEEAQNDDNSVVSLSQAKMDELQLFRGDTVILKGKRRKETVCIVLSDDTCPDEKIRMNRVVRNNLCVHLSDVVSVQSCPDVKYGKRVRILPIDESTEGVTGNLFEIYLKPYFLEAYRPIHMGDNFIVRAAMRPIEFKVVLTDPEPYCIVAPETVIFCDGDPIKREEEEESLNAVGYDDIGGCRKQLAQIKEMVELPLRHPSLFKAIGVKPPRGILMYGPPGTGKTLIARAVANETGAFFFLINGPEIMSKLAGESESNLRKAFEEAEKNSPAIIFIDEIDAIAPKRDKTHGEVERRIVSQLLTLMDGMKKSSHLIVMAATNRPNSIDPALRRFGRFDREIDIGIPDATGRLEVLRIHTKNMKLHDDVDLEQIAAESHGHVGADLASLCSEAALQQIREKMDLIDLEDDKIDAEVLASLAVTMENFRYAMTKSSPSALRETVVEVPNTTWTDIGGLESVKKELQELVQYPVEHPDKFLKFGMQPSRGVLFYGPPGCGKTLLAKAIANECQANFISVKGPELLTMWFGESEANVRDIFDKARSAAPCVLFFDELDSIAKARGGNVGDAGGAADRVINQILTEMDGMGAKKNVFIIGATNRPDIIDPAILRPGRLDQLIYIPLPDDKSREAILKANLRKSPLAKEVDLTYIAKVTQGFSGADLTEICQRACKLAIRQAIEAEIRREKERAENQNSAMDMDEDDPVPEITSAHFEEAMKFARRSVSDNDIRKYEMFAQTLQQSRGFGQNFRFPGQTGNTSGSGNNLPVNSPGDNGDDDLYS

fold increase of the level of Derlin-1/TER94 complexes after cold treatment against untreated (normalised to TER94): 4.9 ± 0.98 fold
B1: Derlin-1 (endogenous, fly) (natural protein, Drosophila (endogenous in flies), UniProt Q9VQ57 1-245, looked up)
chain: MDAGVWYRSLPRFTRYWLTATVVLSMLCRFDVIPLHWLHLDRSAVFSKLQLWRCMTSLFVFPISSNTAFHFLINCFFIVQYSSKLEKDQYSRSPADYLYLLIVSAVLANIGGMIFNVYFLMDTLVLAITYIWCQLNKDVTVSFWFGTRFKAMYLPWVLAAFEFIFHFSLASLVGIFVGHVYYFFKFQYSQDLGGTPLLETPQFLKRLVPDVSGGFGGFGLPPESRAPPRQATESPWGRGMTLGRN
notes: Derlin-1, Drosophila, endogenous protein of about 27 kD (predicted 28.25 kD); also called endogenous Derlin-1; source: endogenous, whole fly lysate
